Measured values published in the supplement of paper PMC11246515.
± gives the standard deviation of the averaged measurements.

Test: total protein half-life in vivo (active degradation + dilution); higher = more stable protein
[1] = E. coli NCM3722 delta-clpP delta-lon delta-hslV, growth: N-lim chemostat, doubling time 6 h
[2] = E. coli NCM3722 delta-clpP, growth: N-lim chemostat, doubling time 6 h
[3] = E. coli NCM3722 delta-hslV, growth: N-lim chemostat, doubling time 6 h
[4] = E. coli NCM3722 delta-lon, growth: N-lim chemostat, doubling time 6 h
[5] = E. coli NCM3722 delta-smpB, growth: N-lim chemostat, doubling time 6 h
[6] = wild type E. coli NCM3722, growth: C-lim chemostat, doubling time 3 h
[7] = wild type E. coli NCM3722, growth: C-lim chemostat, doubling time 6 h
[8] = wild type E. coli NCM3722, growth: C-lim chemostat, doubling time 12 h
[9] = wild type E. coli NCM3722, growth: N-lim chemostat, doubling time 6 h
[10] = wild type E. coli NCM3722, growth: N-lim chemostat, doubling time 12 h
[11] = wild type E. coli NCM3722, growth: P-lim chemostat, doubling time 6 h
[12] = wild type E. coli NCM3722, growth: P-lim chemostat, doubling time 12 h

Row | Sequence | total protein half-life in vivo [1] [h] | total protein half-life in vivo [2] [h] | total protein half-life in vivo [3] [h] | total protein half-life in vivo [4] [h] | total protein half-life in vivo [5] [h] | total protein half-life in vivo [6] [h] | total protein half-life in vivo [7] [h] | total protein half-life in vivo [8] [h] | total protein half-life in vivo [9] [h] | total protein half-life in vivo [10] [h] | total protein half-life in vivo [11] [h] | total protein half-life in vivo [12] [h]
1 | MSIKTIKYFSTIIVAVVAVLAGWWLWNYYMQSPWTRDGKIRAEQVSITPQVSGRIVELNIKDNQLVNAGDLLLTIDKTPFQIAELNAQAQLAKAQSDLAKANNEANRRRHLSQNFISAEELDTANLNVKAMQASVDAAQATLKQAQWQLAQTEIRAPVSGWVTNLTTRIGDYADTGKPLFALVDSHSFYVIGYFEETKLRHIREGAPAQITLYSDNKTLQGHVSSIGRAIYDQSVESDSSLIPDVKPNVPWVRLAQRVPVRFALDKVPGDVTLVSGTTCSIAVGQ | 6.427 ± 0.064 | 4.89 ± 0.55 | 6.39 ± 0.71 | 6.46 ± 0.5 | 5.645 ± 0.01 | 3.43 ± 0.24 | 6.64 ± 0.59 | 11.2 ± 1.9 | 6.093 ± 0.06 | 14.4 ± 1.4 | 6.58 ± 0.25 | 12.5 ± 0.34
2 | MNKVVLLCRPGFEKECAAEITDKAGQREIFGFARVKENAGYVIYECYQPDDGDKLIRELPFSSLIFARQWFVVGELLQHLPPEDRITPIVGMLQGVVEKGGELRVEVADTNESKELLKFCRKFTVPLRAALRDAGVLANYETPKRPVVHVFFIAPGCCYTGYSYSNNNSPFYMGIPRLKFPADAPSRSTLKLEEAFHVFIPADEWDERLANGMWAVDLGACPGGWTYQLVKRNMWVYSVDNGPMAQSLMDTGQVTWLREDGFKFRPTRSNISWMVCDMVEKPAKVAALMAQWLVNGWCRETIFNLKLPMKKRYEEVSHNLAYIQAQLDEHGINAQIQARQLYHDREEVTVHVRRIWAAVGGRRDER [P0ADR6] | 5.236 ± 0.0068 | 4.78 ± 0.26 | 4.77 ± 0.28 | 5.75 ± 1 | 4.81 ± 0.15 | 3.45 ± 0.77 | 5.93 ± 0.44 | 10.2 ± 0.49 | 4.78 ± 0.28 | 8.148 ± 0.00089 | 5.72 ± 0.16 | 11.6 ± 0.63
3 | MSNIWSKEETLWSFALYGTAVGAGTLFLPIQLGSAGAVVLFITALVAWPLTYWPHKALCQFILSSKTSAGEGITGAVTHYYGKKIGNLITTLYFIAFFVVVLIYAVAITNSLTEQLAKHMVIDLRIRMLVSLGVVLILNLIFLMGRHATIRVMGFLVFPLIAYFLFLSIYLVGSWQPDLLTTQVEFNQNTLHQIWISIPVMVFAFSHTPIISTFAIDRREKYGEHAMDKCKKIMKVAYLIICISVLFFVFSCLLSIPPSYIEAAKEEGVTILSALSMLPNAPAWLSISGIIVAVVAMSKSFLGTYFGVIEGATEVVKTTLQQVGVKKSRAFNRALSIMLVSLITFIVCCINPNAISMIYAISGPLIAMILFIMPTLSTYLIPALKPWRSIGNLITLIVGILCVSVMFFS | – | – | – | – | 5.13 | – | – | – | – | – | – | –
4 | MRLNPGQQQAVEFVTGPCLVLAGAGSGKTRVITNKIAHLIRGCGYQARHIAAVTFTNKAAREMKERVGQTLGRKEARGLMISTFHTLGLDIIKREYAALGMKANFSLFDDTDQLALLKELTEGLIEDDKVLLQQLISTISNWKNDLKTPSQAAASAIGERDRIFAHCYGLYDAHLKACNVLDFDDLILLPTLLLQRNEEVRKRWQNKIRYLLVDEYQDTNTSQYELVKLLVGSRARFTVVGDDDQSIYSWRGARPQNLVLLSQDFPALKVIKLEQNYRSSGRILKAANILIANNPHVFEKRLFSELGYGAELKVLSANNEEHEAERVTGELIAHHFVNKTQYKDYAILYRGNHQSRVFEKFLMQNRIPYKISGGTSFFSRPEIKDLLAYLRVLTNPDDDSAFLRIVNTPKREIGPATLKKLGEWAMTRNKSMFTASFDMGLSQTLSGRGYEALTRFTHWLAEIQRLAEREPIAAVRDLIHGMDYESWLYETSPSPKAAEMRMKNVNQLFSWMTEMLEGSELDEPMTLTQVVTRFTLRDMMERGESEEELDQVQLMTLHASKGLEFPYVYMVGMEEGFLPHQSSIDEDNIDEERRLAYVGITRAQKELTFTLCKERRQYGELVRPEPSRFLLELPQDDLIWEQERKVVSAEERMQKGQSHLANLKAMMAAKRGK | 4.75 ± 0.66 | 3.564 ± 0.03 | 3.26 ± 0.39 | 3.59 ± 0.24 | 2.97 ± 0.12 | 2.89 ± 0.43 | 4.89 ± 0.71 | 6.36 ± 0.89 | 3.27 ± 0.52 | 4.74 ± 0.2 | 5.75 ± 0.71 | 8.39 ± 0.72
5 | MPLHNLTRFPRLEFIGAPTPLEYLPRFSDYLGREIFIKRDDVTPMAMGGNKLRKLEFLAADALREGADTLITAGAIQSNHVRQTAAVAAKLGLHCVALLENPIGTTAENYLTNGNRLLLDLFNTQIEMCDALTDPNAQLEELATRVEAQGFRPYVIPVGGSNALGALGYVESALEIAQQCEGAVNISSVVVASGSAGTHAGLAVGLEHLMPESELIGVTVSRSVADQLPKVVNLQQAIAKELELTASAEILLWDDYFAPGYGVPNDEGMEAVKLLARLEGILLDPVYTGKAMAGLIDGISQKRFKDEGPILFIHTGGAPALFAYHPHV | – | 5.78 ± 0.85 | 5.5 ± 0.72 | 6.76 ± 0.46 | 5.72 ± 0.2 | 3.17 ± 0.16 | 5.52 ± 0.73 | – | 5.78 ± 0.087 | 11.6 ± 0.43 | 5.91 ± 0.16 | 12.259 ± 0.0094
6 | MYQVVASDLDGTLLSPDHTLSPYAKETLKLLTARGINFVFATGRHHVDVGQIRDNLEIKSYMITSNGARVHDLDGNLIFAHNLDRDIASDLFGVVNDNPDIITNVYRDDEWFMNRHRPEEMRFFKEAVFQYALYEPGLLEPEGVSKVFFTCDSHEQLLPLEQAINARWGDRVNVSFSTLTCLEVMAGGVSKGHALEAVAKKLGYSLKDCIAFGDGMNDAEMLSMAGKGCIMGSAHQRLKDLHPELEVIGTNADDAVPHYLRKLYLS | 3.6 ± 0.88 | 2.94 ± 0.046 | 3.53 ± 0.15 | 3.67 ± 0.27 | 3.31 ± 0.055 | – | 4.88 ± 0.24 | 8.98 ± 0.53 | 3.39 ± 0.091 | 5.36 ± 0.23 | 4.82 ± 0.18 | 10.2 ± 0.16
7 | MGKSIVVVSAVNFTTGGPFTILKKFLAATNNKENVSFIALVHSAKELKESYPWVKFIEFPEVKGSWLKRLHFEYVVCKKLSKELNATHWICLHDITANVVTKKRYVYCHNPAPFYKGILFREILMEPSFFLFKMLYGLIYKINIKKNTAVFVQQFWMKEKFIKKYSINNIIVSRPEIKLSDKSQLTDDDSQFKNNPSELTIFYPAVPRVFKNYELIISAARKLKEQSNIKFLLTISGTENAYAKYIISLAEGLDNVHFLGYLDKEKIDHCYNISDIVCFPSRLETWGLPLSEAKERGKWVLASDFPFTRETLGSYEKKAFFDSNNDDMLVKLIIDFKKGNLKKDISDANFIYRNENVLVGFDELVNFITEEH | 5.98 | > 8 | > 8 | 7.3 ± 0.89 | 5.6 ± 0.084 | – | 5.53 | 10.5 | 5.39 ± 0.26 | 12.4 ± 0.87 | 6.42 | 14.9 ± 1.6
